Test results reported in paper PMC6572864, “Recombinant production, purification, crystallization, and structure analysis of human transforming growth factor β2 in a new conformation” (Scientific Reports, 2019).

Biological target: the molecule itself
Assay: crystal structure; sitting-drop vapor diffusion, 20 °C, 20% isopropanol, 0.2 M calcium chloride, 0.1 M sodium acetate pH 4.6; space group P4(1)2(1)2, 2.0 Å; half a disulfide-linked dimer per asymmetric unit

B1: human transforming growth factor β2, mature growth-factor moiety (GF) (ligand, UniProt P61812 303-414, looked up)
chain: ALDAAYCFRNVQDNCCLRPLYIDFKRDLGWKWIHEPKGYNANFCAGACPYLWSSDTQHSRVLSLYNTINPEASASPCCVSQDLEPLTILYYIGKTPKIEQLSNMIVKSCKCS
notes: human TGFβ2 growth-factor moiety, residues A303-S414 of the precursor (UniProt P61812), 112 residues, released by cleavage at R302-A303; Disulfide-linked homodimer (intermolecular disulfide C379-C379); The crystals came from octahistidine-tagged pro-TGFβ2 mixed with methylamine-induced hα2M; they also grew from pro-TGFβ2 alone; also called mature TGFβ2; TGFβ2 GF; source: purified together with …
stoichiometry N: 2
